Laboratory results as given in paper PMC8693265, “Investigation of PAS and CNBH domain interactions in hERG channels and effects of long-QT syndrome-causing mutations with surface plasmon resonance” (The Journal of Biological Chemistry, 2021).
Residue numbers refer to the chain shown, from its start. In names and notes the source's numbering stands. Where two headings read alike, the source gives them in different places.

B1: hERG CNBH domain (residues 734-867) (domain or fragment, human, UniProt Q12809 734-867, looked up)
chain: RSLLQHCKPFRGATKGCLRALAMKFKTTHAPPGDTLVHAGDLLTALYFISRGSIEILRGDVVVAILGKNDIFGEPLNLYARPGKSNGDVRALTYCDLHKIHRDDLLEVLDMYPEFSDHFWSSLEITFNLRDTNM
notes: also called isolated CNBH domain; not shown: 6-His, N-terminal, cleaved
B2: hERG PAS domain (residues 2-134) (domain or fragment, human, UniProt Q12809 2-134, looked up)
chain: PVRRGHVAPQNTFLDTIIRKFEGQSRKFIIANARVENCAVIYCNDGFCELCGYSRAEVMQRPCTCDFLHGPRTQRRAAAQIAQALLGAEERKVEIAFYRKDGSCFLCLVDVVPVKNEDGAVIMFILNFEVVME
notes: PAS domain (with PAS-cap) of the human ether-a-go-go-related gene (hERG, Kv11.1, KCNH2) channel, residues 2-134; Cloned in pETM11; The PAS domain expressed from mRNA in oocytes (pGH19) is written under this molecule in the functional rows; also called isolated PAS domain; free PAS domain; not shown: 6-His, N-terminal, cleaved
B3: hERG PAS domain with the LQTS-causing mutation E58D (domain or fragment, human, UniProt Q12809 2-134, looked up)
chain: B2 chain with E57D
notes: PAS domain of the hERG (KCNH2) channel, residues 2-134, with the genetically occurring LQTS mutation E58D; also called PAS-E58D; not shown: 6-His, N-terminal, cleaved
B4: hERG PAS domain with the LQTS-causing mutation R20G (domain or fragment, human, UniProt Q12809 2-134, looked up)
chain: B2 chain with R19G
notes: PAS domain of the hERG (KCNH2) channel, residues 2-134, with the genetically occurring LQTS mutation R20G; also called PAS-R20G; not shown: 6-His, N-terminal, cleaved
B5: mEAG PAS domain (residues 7-136) (domain or fragment, mouse (from the name mEAG), UniProt Q60603 7-136, looked up)
chain: RRGLVAPQNTFLENIVRRSNDTNFVLGNAQIVDWPIVYSNDGFCKLSGYHRAEVMQKSSACSFMYGELTDKDTVEKVRQTFENYEMNSFEILMYKKNRTPVWFFVKIAPIRNEQDKVVLFLCTFSDITAF
notes: PAS domain of the mEAG channel, residues 7-136; not shown: 6-His, N-terminal, cleaved

What was measured:
Experiment in all cases: SPR; one domain amine-coupled to a CM5 chip (~2000-3000 RU), the other injected as analyte over a range of concentrations (maximum 10 uM); Biacore T200, 25 C; 150 mM KCl, 1 mM TCEP, 10% glycerol, 0.05% Tween 20, 30 mM HEPES pH 7.5; fits with the two-state reaction model; for PAS/PAS and CNBH/CNBH the step of oligomerisation is not told
[1] = target: the molecule itself
[2] = target: the molecule itself; remark: listed apart in the source
[3] = target: B1; settings: both partners purified
[4] = target: B1; settings: both partners purified; remark: listed apart in the source
[5] = target: B2; settings: both partners purified

Work on B1 yielded a Kd [1] of 5 µM and a Kd [2] of 2.7 µM.

With B2 the Kd [1] was 0.4 µM, the Kd [3] was 1.4 µM and the Kd [2] was 1.6 µM.

B3 showed a Kd [4] of 0.2 µM and a Kd [3] of 0.6 µM.

For B4, the Kd [4] was 2 µM and the Kd [3] was 3.6 µM.

B5 showed a Kd [5] of about 5.6 µM and a Kd [4] of about 1.7 µM.
